Measured values as given in article PMC3806662.

Biological target: BiP (human (endogenous in HEK293T)) (UniProt P11021)
Experiment: co-IP

UniProt P11021, sequence (P11021 19-654): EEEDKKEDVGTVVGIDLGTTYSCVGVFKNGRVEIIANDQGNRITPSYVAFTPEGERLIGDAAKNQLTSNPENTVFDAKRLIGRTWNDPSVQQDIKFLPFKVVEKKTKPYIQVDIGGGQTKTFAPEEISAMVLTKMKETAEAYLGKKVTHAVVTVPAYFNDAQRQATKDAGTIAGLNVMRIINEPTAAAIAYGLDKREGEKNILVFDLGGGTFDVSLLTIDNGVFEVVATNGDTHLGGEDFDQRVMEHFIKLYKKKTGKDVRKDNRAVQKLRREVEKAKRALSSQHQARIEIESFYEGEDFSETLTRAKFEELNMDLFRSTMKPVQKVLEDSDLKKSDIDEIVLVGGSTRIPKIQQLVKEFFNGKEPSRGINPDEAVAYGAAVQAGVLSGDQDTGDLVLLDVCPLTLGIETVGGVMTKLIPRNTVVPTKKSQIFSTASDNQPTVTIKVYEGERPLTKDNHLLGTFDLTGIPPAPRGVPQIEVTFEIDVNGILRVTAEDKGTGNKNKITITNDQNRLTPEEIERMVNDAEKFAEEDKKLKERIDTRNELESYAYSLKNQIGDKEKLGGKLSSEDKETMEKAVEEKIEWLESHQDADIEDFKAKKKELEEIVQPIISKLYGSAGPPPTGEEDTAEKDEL

## QQQ mutant of NHK (from UniProt P01009 25-418) (natural protein)
  fold co-precipitated relative to NHK: 2 fold
